Measured values taken from article PMC12416549 (2024).

T1: TNFR1 (Homo sapiens, UniProt P19438)
T1 chain: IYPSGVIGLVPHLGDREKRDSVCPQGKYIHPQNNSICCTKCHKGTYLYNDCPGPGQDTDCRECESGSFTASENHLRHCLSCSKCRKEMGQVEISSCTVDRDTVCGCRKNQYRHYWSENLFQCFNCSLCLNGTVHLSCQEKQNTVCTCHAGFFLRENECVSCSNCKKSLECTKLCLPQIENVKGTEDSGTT


Target: T1, TNFR1
Assay: yeast display SC50

Row | Binder | apparent Kd (screen) [nM]
1 | E81L (designed binder) MTLQELLREEALRRAEAEAFRYALELLAEKFPEQKEYLLDLAEEIESQIRSLSGVDVEDVRKFLDKEWAWVKELLAEHPALLAEVEAARAARLAELRAEVEAKVAA | 0.653
2 | W70G (designed binder) MTLQELLREEALRRAEAEAFRYALELLAEKFPEQKEYLLDLAEEIESQIRSLSGVDVEDVRKFLDKEWAGVKELLAEHPAELAEVEAARAARLAELRAEVEAKVAA | 16.7
3 | E84M (designed binder) MTLQELLREEALRRAEAEAFRYALELLAEKFPEQKEYLLDLAEEIESQIRSLSGVDVEDVRKFLDKEWAWVKELLAEHPAELAMVEAARAARLAELRAEVEAKVAA | 0.956
4 | R89M (designed binder) MTLQELLREEALRRAEAEAFRYALELLAEKFPEQKEYLLDLAEEIESQIRSLSGVDVEDVRKFLDKEWAWVKELLAEHPAELAEVEAAMAARLAELRAEVEAKVAA | 0.869
5 | I45G (designed binder) MTLQELLREEALRRAEAEAFRYALELLAEKFPEQKEYLLDLAEEGESQIRSLSGVDVEDVRKFLDKEWAWVKELLAEHPAELAEVEAARAARLAELRAEVEAKVAA | 8.56
6 | V104A (designed binder) MTLQELLREEALRRAEAEAFRYALELLAEKFPEQKEYLLDLAEEIESQIRSLSGVDVEDVRKFLDKEWAWVKELLAEHPAELAEVEAARAARLAELRAEVEAKAAA | 0.653
7 | L27D (designed binder) MTLQELLREEALRRAEAEAFRYALELDAEKFPEQKEYLLDLAEEIESQIRSLSGVDVEDVRKFLDKEWAWVKELLAEHPAELAEVEAARAARLAELRAEVEAKVAA | 0.142
8 | A23F (designed binder) MTLQELLREEALRRAEAEAFRYFLELLAEKFPEQKEYLLDLAEEIESQIRSLSGVDVEDVRKFLDKEWAWVKELLAEHPAELAEVEAARAARLAELRAEVEAKVAA | 1.16
9 | A83Y (designed binder) MTLQELLREEALRRAEAEAFRYALELLAEKFPEQKEYLLDLAEEIESQIRSLSGVDVEDVRKFLDKEWAWVKELLAEHPAELYEVEAARAARLAELRAEVEAKVAA | 0.718
10 | A15M (designed binder) MTLQELLREEALRRMEAEAFRYALELLAEKFPEQKEYLLDLAEEIESQIRSLSGVDVEDVRKFLDKEWAWVKELLAEHPAELAEVEAARAARLAELRAEVEAKVAA | 0.653
11 | E43N (designed binder) MTLQELLREEALRRAEAEAFRYALELLAEKFPEQKEYLLDLANEIESQIRSLSGVDVEDVRKFLDKEWAWVKELLAEHPAELAEVEAARAARLAELRAEVEAKVAA | 0.446
12 | E77N (designed binder) MTLQELLREEALRRAEAEAFRYALELLAEKFPEQKEYLLDLAEEIESQIRSLSGVDVEDVRKFLDKEWAWVKELLANHPAELAEVEAARAARLAELRAEVEAKVAA | 0.49
13 | L82Q (designed binder) MTLQELLREEALRRAEAEAFRYALELLAEKFPEQKEYLLDLAEEIESQIRSLSGVDVEDVRKFLDKEWAWVKELLAEHPAEQAEVEAARAARLAELRAEVEAKVAA | 0.956
14 | D65F (designed binder) MTLQELLREEALRRAEAEAFRYALELLAEKFPEQKEYLLDLAEEIESQIRSLSGVDVEDVRKFLFKEWAWVKELLAEHPAELAEVEAARAARLAELRAEVEAKVAA | 0.653
15 | A105L (designed binder) MTLQELLREEALRRAEAEAFRYALELLAEKFPEQKEYLLDLAEEIESQIRSLSGVDVEDVRKFLDKEWAWVKELLAEHPAELAEVEAARAARLAELRAEVEAKVLA | 0.653
16 | R13E (designed binder) MTLQELLREEALERAEAEAFRYALELLAEKFPEQKEYLLDLAEEIESQIRSLSGVDVEDVRKFLDKEWAWVKELLAEHPAELAEVEAARAARLAELRAEVEAKVAA | 0.405
17 | E33M (designed binder) MTLQELLREEALRRAEAEAFRYALELLAEKFPMQKEYLLDLAEEIESQIRSLSGVDVEDVRKFLDKEWAWVKELLAEHPAELAEVEAARAARLAELRAEVEAKVAA | 0.49

Row | Binder | apparent Kd (screen) [nM]
18 | V104H (designed binder) MTLQELLREEALRRAEAEAFRYALELLAEKFPEQKEYLLDLAEEIESQIRSLSGVDVEDVRKFLDKEWAWVKELLAEHPAELAEVEAARAARLAELRAEVEAKHAA | 1.16
19 | L93K (designed binder) MTLQELLREEALRRAEAEAFRYALELLAEKFPEQKEYLLDLAEEIESQIRSLSGVDVEDVRKFLDKEWAWVKELLAEHPAELAEVEAARAARKAELRAEVEAKVAA | 0.718
20 | E58L (designed binder) MTLQELLREEALRRAEAEAFRYALELLAEKFPEQKEYLLDLAEEIESQIRSLSGVDVLDVRKFLDKEWAWVKELLAEHPAELAEVEAARAARLAELRAEVEAKVAA | 0.446
21 | G54I (designed binder) MTLQELLREEALRRAEAEAFRYALELLAEKFPEQKEYLLDLAEEIESQIRSLSIVDVEDVRKFLDKEWAWVKELLAEHPAELAEVEAARAARLAELRAEVEAKVAA | 2.48
22 | A91I (designed binder) MTLQELLREEALRRAEAEAFRYALELLAEKFPEQKEYLLDLAEEIESQIRSLSGVDVEDVRKFLDKEWAWVKELLAEHPAELAEVEAARAIRLAELRAEVEAKVAA | 0.956
23 | A17L (designed binder) MTLQELLREEALRRAELEAFRYALELLAEKFPEQKEYLLDLAEEIESQIRSLSGVDVEDVRKFLDKEWAWVKELLAEHPAELAEVEAARAARLAELRAEVEAKVAA | 0.277
24 | A80R (designed binder) MTLQELLREEALRRAEAEAFRYALELLAEKFPEQKEYLLDLAEEIESQIRSLSGVDVEDVRKFLDKEWAWVKELLAEHPRELAEVEAARAARLAELRAEVEAKVAA | 0.593
25 | H78F (designed binder) MTLQELLREEALRRAEAEAFRYALELLAEKFPEQKEYLLDLAEEIESQIRSLSGVDVEDVRKFLDKEWAWVKELLAEFPAELAEVEAARAARLAELRAEVEAKVAA | 0.446
26 | L6Q (designed binder) MTLQEQLREEALRRAEAEAFRYALELLAEKFPEQKEYLLDLAEEIESQIRSLSGVDVEDVRKFLDKEWAWVKELLAEHPAELAEVEAARAARLAELRAEVEAKVAA | 4.83
27 | V100M (designed binder) MTLQELLREEALRRAEAEAFRYALELLAEKFPEQKEYLLDLAEEIESQIRSLSGVDVEDVRKFLDKEWAWVKELLAEHPAELAEVEAARAARLAELRAEMEAKVAA | 0.49
28 | Y22S (designed binder) MTLQELLREEALRRAEAEAFRSALELLAEKFPEQKEYLLDLAEEIESQIRSLSGVDVEDVRKFLDKEWAWVKELLAEHPAELAEVEAARAARLAELRAEVEAKVAA | 0.79
29 | L26I (designed binder) MTLQELLREEALRRAEAEAFRYALEILAEKFPEQKEYLLDLAEEIESQIRSLSGVDVEDVRKFLDKEWAWVKELLAEHPAELAEVEAARAARLAELRAEVEAKVAA | 0.653
30 | R61N (designed binder) MTLQELLREEALRRAEAEAFRYALELLAEKFPEQKEYLLDLAEEIESQIRSLSGVDVEDVNKFLDKEWAWVKELLAEHPAELAEVEAARAARLAELRAEVEAKVAA | 1.86
31 | D40T (designed binder) MTLQELLREEALRRAEAEAFRYALELLAEKFPEQKEYLLTLAEEIESQIRSLSGVDVEDVRKFLDKEWAWVKELLAEHPAELAEVEAARAARLAELRAEVEAKVAA | 3
32 | D40R (designed binder) MTLQELLREEALRRAEAEAFRYALELLAEKFPEQKEYLLRLAEEIESQIRSLSGVDVEDVRKFLDKEWAWVKELLAEHPAELAEVEAARAARLAELRAEVEAKVAA | 12.5
33 | Q4C (designed binder) MTLCELLREEALRRAEAEAFRYALELLAEKFPEQKEYLLDLAEEIESQIRSLSGVDVEDVRKFLDKEWAWVKELLAEHPAELAEVEAARAARLAELRAEVEAKVAA | 0.539
34 | A23Y (designed binder) MTLQELLREEALRRAEAEAFRYYLELLAEKFPEQKEYLLDLAEEIESQIRSLSGVDVEDVRKFLDKEWAWVKELLAEHPAELAEVEAARAARLAELRAEVEAKVAA | 1.4
